Results from patent publication US20170044251A1.

Tests used:
Assay in all cases: ELISA on coated peptide-OVA conjugate, FCA control egg yolk sample, dilution not given
[1] = molecular target: IL-10 Peptide #4 (SEQ ID NO: 10) conjugated to hen ovalbumin (avian animals, such as chickens, quail, and turkeys; hen) (UniProt P01012)
[2] = molecular target: IL-10 Peptide #3 (SEQ ID NO: 7) conjugated to hen ovalbumin (avian animals, such as chickens, quail, and turkeys; hen) (UniProt P01012)
[3] = molecular target: IL-10 Peptide #1 (SEQ ID NO: 1) conjugated to hen ovalbumin (avian animals, such as chickens, quail, and turkeys; hen) (UniProt P01012)

## FCA control egg antibody
[1]
  optical density: 0.6 OD 450 nm
[2]
  optical density: 0.499 OD 450 nm
[3]
  optical density: 0.56 OD 450 nm
